Substrate in the data set: C/C(C=O)=C\CC/C(C)=C/C=O
As to the kind of experiment: purified protein. It counts as biochemical, Antirrhinum majus. The settings on record: 50 μM NADPH fixed, 200 mM MOPS pH 7.0, 100 mM NaCl, 1% THF, 25 °C, 20 nM enzyme.

B1: AmISY (Am18679), Antirrhinum majus iridoid synthase (Antirrhinum majus) (protein)
chain: MSWWYRRSIGETEQKRIEINGVSPTYQSVALIVGVTGIAGSGLAETLSFSDTPGGPWKVYGVARRPCPKWLAKLNVNYVQCDIANTDETYSKVAPLTDITHIFYVSWTGSEDVALNTLMFKNILDSVIPNAPNLKHVSLQTGIKYYWGNMAEMDSTNQPHECPFYENMPRLKQDNFYYNLEDLVYDSAVRKNGLSWSIHRPALIFGFSPCSMMNTVSTLCVYAAICKHENKPLVYTGTETSWTCLWDAVDSDLLAEHFLWAATVPNAKNQAFNINNGDVFKWKHMWKVLAKEFDIEAIGYEGKEPVLLEDLMKDKDSVWDEIVKKHDLVPTKLRDIAAFWLADVVFRNKETLCSMNKNKEFGFMGFRDTTKSFVSSINKMRDFKFIP
notes: GenBank record is one of MF281392-MF281395 (not assigned in the text)
Take B1: the Km was 1.1 ± 0.1 µM and the turnover number (kcat) is 0.72 ± 0.02 s⁻¹.

The values above are taken from publication PMC5582856, “Inverted stereocontrol of iridoid synthase in snapdragon” (The Journal of Biological Chemistry, 2017).
